What was measured:
LinClpA [1] = molecular target: T1, LinClpA (Leptospira interrogans, UniProt Q8F4D7); assay: ANS fluorescence change on oligomerization; type: binding; conditions: 2 mM nucleotide, 3 μM protein, 10 μM ANS, 8 mM MgCl2, pH 7.8; indirect, oligomerization read-out
T1 construct: gene clpA; full length, 740 residues, C-terminal 6xHis tag (pET-23a), E. coli BL21 (DE3), Ni-NTA; monomer ~82 kDa, ~492 kDa oligomer with ATP
T1 sequence (Q8F4D7 19-758): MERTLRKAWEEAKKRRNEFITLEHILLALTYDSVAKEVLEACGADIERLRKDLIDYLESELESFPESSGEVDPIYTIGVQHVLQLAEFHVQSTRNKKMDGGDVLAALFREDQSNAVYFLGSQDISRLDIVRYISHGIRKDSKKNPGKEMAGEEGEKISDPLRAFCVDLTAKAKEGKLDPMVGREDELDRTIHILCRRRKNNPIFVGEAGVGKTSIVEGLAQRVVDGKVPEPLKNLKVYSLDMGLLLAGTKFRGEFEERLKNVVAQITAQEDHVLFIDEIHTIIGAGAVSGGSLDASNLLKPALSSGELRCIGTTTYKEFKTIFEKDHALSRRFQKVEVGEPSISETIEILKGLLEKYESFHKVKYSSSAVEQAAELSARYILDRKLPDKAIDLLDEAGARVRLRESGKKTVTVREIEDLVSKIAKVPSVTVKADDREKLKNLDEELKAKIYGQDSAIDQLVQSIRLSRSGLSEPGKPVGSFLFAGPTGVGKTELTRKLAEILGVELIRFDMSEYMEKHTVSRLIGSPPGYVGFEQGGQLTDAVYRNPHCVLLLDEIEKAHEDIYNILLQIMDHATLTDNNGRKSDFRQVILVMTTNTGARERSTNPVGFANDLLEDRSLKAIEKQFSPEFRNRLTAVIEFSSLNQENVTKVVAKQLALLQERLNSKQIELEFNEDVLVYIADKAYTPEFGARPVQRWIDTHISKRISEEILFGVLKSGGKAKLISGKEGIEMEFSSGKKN
Description: ANS fluorescence change on oligomerization on LinClpA | pre-incubation of LinClpA with ADP, PolyP or ATP led to reductions in ANS fluorescence

LinClpA [2] = molecular target: T1, LinClpA; assay: ANS fluorescence change on oligomerization; type: binding; conditions: 2 mM nucleotide, 3 μM protein, 10 μM ANS, 8 mM MgCl2, pH 7.8; indirect, oligomerization read-out; remark: listed apart in the source
ClpS (Escherichia coli) = ClpS (Escherichia coli) (UniProt P0A8Q6); conditions: cited from earlier work
LinClpA [3] = molecular target: T1, LinClpA; assay: ANS fluorescence change on oligomerization (also size-exclusion chromatography); type: binding; conditions: 2 mM nucleotide, 3 μM protein, 10 μM ANS, 8 mM MgCl2, pH 7.8; indirect, oligomerization read-out
LinClpA [4] = molecular target: T1, LinClpA; assay: malachite green phosphate release; type: biochemical; conditions: 8 mM Mg2+, pH 7.8, 37°C, 1 μM enzyme
[5] = molecular target: LinClpP1 (ClpP1 isoform of the Clp protease of Leptospira interrogans) (L. interrogans) (UniProt Q72SG6); assay: ELISA; LinClpP1, LinClpP2, LinClpS1 or LinClpS2 (1 μM/well) coated overnight at 4°C; blocked with 3% BSA in PBS; ATP-bound LinClpA or LinClpA^∆N (0–3 μM) overlaid 2 hours at 37°C; detected with mouse anti-LinClpA; Kd by Hill plot analysis
[6] = molecular target: LinClpP2 (ClpP2 isoform of the Clp protease of Leptospira interrogans) (L. interrogans) (UniProt Q72R01); assay: as above
[7] = molecular target: LinClpS1 (Clp adaptor protein ClpS1 of Leptospira interrogans) (L. interrogans serovar Copenhageni strain Fiocruz L1-130); assay: as above
[8] = molecular target: LinClpS2 (Clp adaptor protein ClpS2 of Leptospira interrogans) (L. interrogans serovar Copenhageni strain Fiocruz L1-130) (UniProt Q72RD1); assay: as above
[9] = molecular target: LinClpS1 (Clp adaptor protein ClpS1 of Leptospira interrogans) (L. interrogans serovar Copenhageni strain Fiocruz L1-130)
[10] = molecular target: LinClpS2 (Clp adaptor protein ClpS2 of Leptospira interrogans) (L. interrogans serovar Copenhageni strain Fiocruz L1-130) (UniProt Q72RD1)
[11] = molecular target: LinClpS1 (Clp adaptor protein ClpS1 of Leptospira interrogans) (L. interrogans serovar Copenhageni strain Fiocruz L1-130); remark: listed apart in the source
[12] = molecular target: LinClpS2 (Clp adaptor protein ClpS2 of Leptospira interrogans) (L. interrogans serovar Copenhageni strain Fiocruz L1-130) (UniProt Q72RD1); remark: listed apart in the source
[13] = molecular target: LinClpA (ClpA ATPase chaperone of Leptospira interrogans) (L. interrogans serovar Copenhageni strain Fiocruz L1-130); assay: ANS dye-binding fluorescence; LinClpA (3 μM) pre-incubated with ATP, GTP, CTP, UTP, ADP or PolyP (2 mM) 20 minutes at 4°C, then ANS (10 μM); excitation 350 nm, emission 400-750 nm; less ANS fluorescence read as oligomerization

Chain of LinClpS2 (Clp adaptor protein ClpS2 of Leptospira interrogans) (L. interrogans serovar Copenhageni strain Fiocruz L1-130) (Q72RD1 whole entry): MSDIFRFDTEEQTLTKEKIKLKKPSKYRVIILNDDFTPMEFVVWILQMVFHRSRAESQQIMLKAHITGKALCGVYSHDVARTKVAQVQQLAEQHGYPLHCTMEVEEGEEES
Chain of ClpA (P0ABH9 whole entry): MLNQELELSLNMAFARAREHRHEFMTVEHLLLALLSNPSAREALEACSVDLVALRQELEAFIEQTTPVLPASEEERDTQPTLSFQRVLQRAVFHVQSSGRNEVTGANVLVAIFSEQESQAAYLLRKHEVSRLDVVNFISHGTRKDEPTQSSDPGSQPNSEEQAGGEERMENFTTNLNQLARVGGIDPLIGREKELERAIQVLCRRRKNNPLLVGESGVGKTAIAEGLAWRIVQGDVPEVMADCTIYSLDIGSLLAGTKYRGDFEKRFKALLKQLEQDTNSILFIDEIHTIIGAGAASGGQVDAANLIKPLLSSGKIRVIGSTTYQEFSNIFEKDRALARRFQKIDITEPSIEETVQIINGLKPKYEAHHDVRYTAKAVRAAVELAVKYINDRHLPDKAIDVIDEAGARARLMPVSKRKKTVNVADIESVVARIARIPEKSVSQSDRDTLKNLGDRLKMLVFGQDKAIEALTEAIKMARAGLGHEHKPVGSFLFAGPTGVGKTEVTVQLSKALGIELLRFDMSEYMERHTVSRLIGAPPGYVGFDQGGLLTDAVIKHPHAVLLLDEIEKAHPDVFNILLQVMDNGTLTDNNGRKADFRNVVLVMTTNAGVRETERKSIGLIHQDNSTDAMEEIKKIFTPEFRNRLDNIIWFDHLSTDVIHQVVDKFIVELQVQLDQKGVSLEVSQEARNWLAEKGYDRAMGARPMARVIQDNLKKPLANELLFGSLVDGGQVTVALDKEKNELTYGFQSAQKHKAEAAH

For Nc1ncnc2c1ncn2[C@@H]1O[C@H](COP(=O)(O)OP(=O)(O)O)[C@@H](O)[C@H]1O [ADP], which “ANS fluorescence, % of pure LinClpA” value (LinClpA [1]) is on record?
Its value is 65%.

For O=c1ccn([C@@H]2O[C@H](COP(=O)(O)OP(=O)(O)OP(=O)(O)O)[C@@H](O)[C@H]2O)c(=O)[nH]1 [UTP], which “ANS fluorescence change on oligomerization” value (“ANS fluorescence change” for short) (LinClpA [2]) is on record?
The value was “can interact with various nucleotides, including GTP, CTP and UTP, in addition to ATP”.

With ClpA (from UniProt P0ABH9) as the compound, how does the Kd (ClpS (Escherichia coli)) read?
The Kd was 330 nM.

For Nc1ccn([C@@H]2O[C@H](COP(=O)(O)OP(=O)(O)OP(=O)(O)O)[C@@H](O)[C@H]2O)c(=O)n1 [CTP], which “ANS fluorescence change” value (LinClpA [2]) is on record?
Its value is “can interact with various nucleotides, including GTP, CTP and UTP, in addition to ATP”.

For Nc1nc2c(ncn2[C@@H]2O[C@H](COP(=O)(O)OP(=O)(O)OP(=O)(O)O)[C@@H](O)[C@H]2O)c(=O)[nH]1 [GTP], which “ANS fluorescence change” value (LinClpA [2]) is on record?
Its value is “can interact with various nucleotides, including GTP, CTP and UTP, in addition to ATP”.

Which “ANS fluorescence, % of pure LinClpA” value (LinClpA [3]) does the source give for Nc1ncnc2c1ncn2[C@@H]1O[C@H](COP(=O)(O)OP(=O)(O)OP(=O)(O)O)[C@@H](O)[C@H]1O [ATP] here?
Its value is 50%.

What about the “malachite green phosphate release” value (LinClpA [4]) of the same compound?
The value was “LinClpA primarily utilizes ATP as its substrate”.

With “LinClpA^∆N (N-domain-deleted variant of LinClpA) (domain or fragment)” as the compound, how does the Kd [5] read?
Its Kd is 280 nM.

What about the Kd [6] of the same compound?
The Kd was 280 nM.

For “LinClpA (ClpA ATPase chaperone of Leptospira interrogans) (enzyme)”, which Kd [7] is on record?
Its Kd is 440 nM.

What about the Kd [8] of the same compound?
The Kd was 320 nM.

What about the Kd [5] of the same compound?
The Kd was 280 nM.

And the Kd [6]?
Its Kd is 280 nM.

And the ATPase activity of LinClpA (1 μM, malachite green) with LinClpS1 1–10 μM; dose-dependent inhibition; percent reduction at 10 μM [9]?
Its ATPase activity of LinClpA (1 μM, malachite green) with LinClpS1 1–10 μM; dose-dependent inhibition; percent reduction at 10 μM is 57 % reduction.

And the ATPase activity of LinClpA (1 μM, malachite green) with LinClpS2 1–10 μM; dose-dependent inhibition; percent reduction at 10 μM [10]?
The ATPase activity of LinClpA (1 μM, malachite green) with LinClpS2 1–10 μM; dose-dependent inhibition; percent reduction at 10 μM was 90 % reduction.

What about the degradation of eGFP-SsrA (2 μM) by the LinClpAP1P2 machinery (3 µM) after 60 minutes with LinClpS1 5, 10 and 15 µM, percent of the machinery without adaptor; value at 5 µM; total suppression at 15 µM (% of LinClpAP1P2 activity) [11] of the same compound?
Its degradation of eGFP-SsrA (2 μM) by the LinClpAP1P2 machinery (3 µM) after 60 minutes with LinClpS1 5, 10 and 15 µM, percent of the machinery without adaptor; value at 5 µM; total suppression at 15 µM (% of LinClpAP1P2 activity) is 53.

What about the degradation of eGFP-SsrA (2 μM) by the LinClpAP1P2 machinery (3 µM) after 60 minutes with LinClpS2 5, 10 and 15 µM, percent of the machinery without adaptor; value at 5 µM; total suppression at 10 µM (% of LinClpAP1P2 activity) [12] of the same compound?
The degradation of eGFP-SsrA (2 μM) by the LinClpAP1P2 machinery (3 µM) after 60 minutes with LinClpS2 5, 10 and 15 µM, percent of the machinery without adaptor; value at 5 µM; total suppression at 10 µM (% of LinClpAP1P2 activity) was 39.

What about the ANS fluorescence intensity with ADP, percent of pure LinClpA [13] of the same compound?
The ANS fluorescence intensity with ADP, percent of pure LinClpA was 65%.

What about the ANS fluorescence intensity with ATP, percent of pure LinClpA [13] of the same compound?
The ANS fluorescence intensity with ATP, percent of pure LinClpA was 50%.

What about the ANS fluorescence intensity with PolyP, percent of pure LinClpA [13] of the same compound?
The ANS fluorescence intensity with PolyP, percent of pure LinClpA was 55%.

Source: PMC12493166, “The ClpA chaperone and the two adaptor proteins modulate the fate of the model substrate tagged with a SsrA-degron of Leptospira” (Biochemical Journal, 2025)
